Like-named read-outs stand apart in the source and are kept apart here. Where no end group is shown, it is not given here. The star is where a group is joined. Biotin = O=C1N[C@H]2[C@H](CS[C@H]2CCCCC(=O)*)N1
What was measured:
[1] = biological target: T1, US28 of HCMV strain DB fused to a C-terminal 6His tag (human cytomegalovirus (HCMV) strain DB, UniProt P69332 1-354); assay: flow cytometry, CHO-US28 against control CHO cells
T1 chain: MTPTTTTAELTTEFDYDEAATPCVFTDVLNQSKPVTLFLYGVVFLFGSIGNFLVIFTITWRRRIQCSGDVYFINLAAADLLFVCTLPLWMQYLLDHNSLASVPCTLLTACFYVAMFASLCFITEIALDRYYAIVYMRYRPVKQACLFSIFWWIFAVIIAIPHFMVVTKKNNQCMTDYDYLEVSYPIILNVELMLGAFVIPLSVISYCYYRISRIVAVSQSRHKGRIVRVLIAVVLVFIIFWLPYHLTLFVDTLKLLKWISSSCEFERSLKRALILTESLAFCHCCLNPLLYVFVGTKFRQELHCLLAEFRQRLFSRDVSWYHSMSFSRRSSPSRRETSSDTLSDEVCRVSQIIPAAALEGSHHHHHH

[2] = biological target: T1, US28 of HCMV strain DB fused to a …; assay: flow cytometry, processed data of FIG. 33
[3] = biological target: T2, US28 of HCMV strain TB40/E fused to a C-terminal 6His tag (human cytomegalovirus (HCMV) strain …, UniProt P69332 1-354); assay: flow cytometry, processed data of FIG. 33
T2 construct: also called TB40/E form of US28
T2 chain: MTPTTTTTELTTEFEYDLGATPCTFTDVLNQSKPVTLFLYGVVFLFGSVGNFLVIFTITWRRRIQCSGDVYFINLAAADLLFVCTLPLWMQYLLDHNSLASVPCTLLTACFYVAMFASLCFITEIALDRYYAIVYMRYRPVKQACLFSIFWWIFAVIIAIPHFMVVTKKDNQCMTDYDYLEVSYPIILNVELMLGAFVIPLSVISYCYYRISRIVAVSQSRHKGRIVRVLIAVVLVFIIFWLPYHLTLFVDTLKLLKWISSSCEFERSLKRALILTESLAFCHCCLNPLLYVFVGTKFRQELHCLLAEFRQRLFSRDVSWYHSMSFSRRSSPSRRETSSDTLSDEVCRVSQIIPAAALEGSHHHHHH

[4] = biological target: T3, US28 of HCMV strain Merlin fused to a C-terminal 6His tag (human cytomegalovirus (HCMV) strain …, UniProt F5HF62 1-354); assay: flow cytometry, processed data of FIG. 33
T3 construct: also called Merlin-encoded US28
T3 sequence: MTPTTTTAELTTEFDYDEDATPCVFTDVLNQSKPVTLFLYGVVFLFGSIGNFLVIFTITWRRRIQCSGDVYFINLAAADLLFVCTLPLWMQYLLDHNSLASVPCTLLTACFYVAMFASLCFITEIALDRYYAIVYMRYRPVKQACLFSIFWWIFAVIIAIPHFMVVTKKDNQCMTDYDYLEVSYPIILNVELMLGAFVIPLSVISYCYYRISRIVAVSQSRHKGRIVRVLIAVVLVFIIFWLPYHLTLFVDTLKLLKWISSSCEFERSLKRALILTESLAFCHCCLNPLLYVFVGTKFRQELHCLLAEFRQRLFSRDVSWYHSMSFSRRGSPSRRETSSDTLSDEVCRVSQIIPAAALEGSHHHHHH

[5] = biological target: T4, US28 of HCMV strain VHL/E fused to a C-terminal 6His tag (human cytomegalovirus (HCMV) strain …, UniProt P69332 1-354); assay: flow cytometry, processed data of FIG. 33; reference
T4 construct: also called VHL/E-encoded US28
T4 chain: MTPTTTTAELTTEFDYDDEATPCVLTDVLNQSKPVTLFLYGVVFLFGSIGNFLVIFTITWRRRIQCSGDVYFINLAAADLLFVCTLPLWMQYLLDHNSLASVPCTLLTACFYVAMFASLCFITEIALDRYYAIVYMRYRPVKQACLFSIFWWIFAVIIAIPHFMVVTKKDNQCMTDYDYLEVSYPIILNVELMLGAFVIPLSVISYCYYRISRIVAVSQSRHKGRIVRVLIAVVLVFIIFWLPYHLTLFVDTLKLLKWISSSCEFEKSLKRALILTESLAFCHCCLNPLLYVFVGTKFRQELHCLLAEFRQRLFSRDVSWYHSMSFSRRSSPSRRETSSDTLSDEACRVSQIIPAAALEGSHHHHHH

[6] = biological target: T1, US28 of HCMV strain DB fused to a …; assay: flow cytometry, transfected HEK Phoenix cells, 6.76 nM
[7] = biological target: T2, US28 of HCMV strain TB40/E fused to a …; assay: as above
[8] = biological target: T4, US28 of HCMV strain VHL/E fused to a …; assay: as above
[9] = biological target: T3, US28 of HCMV strain Merlin fused to a …; assay: as above
Bio-Peptide-1 = biological target: T5, Bio-Peptide-1 (human cytomegalovirus (4N variant, e.g. …)); assay: ELISA, Bio-Peptide-1 coated
T5 construct: also called US28 ECD3 genotype 4N peptide
T5 peptide: Biotin-TKKNNQCMTDYDYLEVS

[10] = biological target: T1, US28 of HCMV strain DB fused to a …; assay: flow cytometry, CHO-US28 against control CHO cells

Binder | binding specificity comparative to the specificity displayed by VUN100 [1] [fold] | variation in binding relative to US28 as encoded by VHL/E [2] | variation in binding relative to US28 as encoded by VHL/E [3] | variation in binding relative to US28 as encoded by VHL/E [4] | variation in binding relative to US28 as encoded by VHL/E [5] | binding value (Preliminary Binding Data) [6] | binding value (Preliminary Binding Data) [7] | binding value (Preliminary Binding Data) [8] | binding value (Preliminary Binding Data) [9] | absorbance (Bio-Peptide-1) | binding specificity comparative to the specificity displayed by VUN100 [10] [fold]
US28-4-4H3C3 (antibody, mouse IgG1, kappa, V domains shown) VH: QVQLQQSGAELAKPGASVKMSCKASGYTFTSYWMHWVKQRPGQGLEWIGYINPSTGYAEYNQKFKDKATLTADKSSSTAYMQLSSLTSEDSAVYYCARLRFGSSGFAYWGQGTLVTVSS VL: not shown | 3.35 |  |  |  |  |  |  |  |  |  | 
4H3C3-Myc (antibody, V domains shown) VH: QVQLQQSGAELAKPGASVKMSCKASGYTFTSYWMHWVKQRPGQGLEWIGYINPSTGYAEYNQKFKDKATLTADKSSSTAYMQLSSLTSEDSAVYYCARLRFGSSGFAYWGQGTLVTVSS VL: not shown |  | 0.59 | -0.16 | -0.38 | 0 | 0.37 | 0.14 | 0.16 | 0.12 |  | 
US28-4-2F5B11 (antibody, mouse IgG1, kappa, V domains shown) VH: EVQLQESGAELAKPGASVKMSCKASGYTFSSYWIHWIKQRPGQGLEWIGYINPNTAYTEFNQKFMDKATLTADKSSSTAYMQLTSLTSEDSAVYYCARLRSDRTGFAYWGQGTLVTVSA VL: not shown | 4.21 |  |  |  |  |  |  |  |  |  | 
2F5B11-Myc (antibody, V domains shown) VH: EVQLQESGAELAKPGASVKMSCKASGYTFSSYWIHWIKQRPGQGLEWIGYINPNTAYTEFNQKFMDKATLTADKSSSTAYMQLTSLTSEDSAVYYCARLRSDRTGFAYWGQGTLVTVSA VL: not shown |  | -0.04 | -0.92 | 0.01 | 0 | 1.04 | 0.57 | 1.08 | 1.09 |  | 
US28-14-4E4-1E8 (antibody, mouse IgG1, kappa, V domains shown) VH: EVKLVESGGDLVKPGGSLKLSCAASGFTFSSYAMSWVRQTPEKRLEWVASISSGGRTYYPDSVKGRFTISRDNARNILYLQMSSLRSEDTAIYYCARGGTRHSYGNGFDYWGQGTTLTVSS VL: QIVLSQSPTIMSASPGEKVTMTCSASSSVSYMHWYQQKSGTSPKRWIYDSSKLASGVPARFSGSGSGTSYSLTISSMEAEDAATYYCQQWTSNPPITFGAGTKLELKR |  |  |  |  |  |  |  |  |  | 2.99 | 4.6
US28-13-1C10-1G9 (antibody, mouse IgG1, kappa, V domains shown) VH: EVKLVESGGGLVKPGGSLKLSCAASGFTFSSYAMSWVRQTPEKRLEWVASISSGGSTYYPDSVKGRFTISRDNARNILYLQMSSLRSEDTAMYYCARGGSTMITTGLGFAYWGQGTLVTVSA VL: QIVLTQSPAIMSASPGEKVTMTCSASSSVSYMHWYQQKSGTSPKRWIYDTSKLASGVPARFSGSGSGTSYSLTISSMEAEDAATYYCQQWSSNPPLTFGAGTKLELKR |  |  |  |  |  |  |  |  |  | 3.11 | 
US28-13-1H3-1A10 (antibody, mouse IgG1, kappa, V domains shown, also called 14-1H3-1A10) VH: EVKLVESGGVLVKPGGSLKFSCAASGFTLSSHALSWVRQTPEKRLEWVASISSRGRTYYPDSVKGRFTVSRDNARNILYLQVSSLRSEDTAMYYCTRGGTHYSYGNGFDFWGQGTTLTVSS VL: QIVLTQSPAIMSASPGEKVTMTCSVSSSVSYMHWYQQKSGTSPKRWIYDTSKLASGVPARFSGSGSGTSYSLTISTMEAEDAATYYCQQWSNNPPITFGAGTKLELKR |  |  |  |  |  |  |  |  |  | 3 | 2.29
US28-13-1C10-1C10 (antibody, mouse IgG1, kappa, V domains shown) VH: EVKLVESGGVLVKPGGSLKFSCAASGFTFSSHALSWVRQTPEKRLEWVASISSRGRTYYPDSVKGRFTVSRDNARNILYLQVSSLRSEDTAMYYCTRGGTHYSYGNGFDFWGQGTTLTVSS VL: QIVLTQSPAIMSASPGEKVTMTCSVSSSVSYMHWYQQKSGTSPKRWIYDTSKLASGVPARFSGSGSGTSYSLTISTMEAEDAATYYCQQWSNNPPITFGAGTKLELKR |  |  |  |  |  |  |  |  |  | 3.11 | 1.74
US28-4-7B1F3 (antibody, mouse IgG1, kappa, V domains shown, also called mouse 7B1F3; mouse7B1F3) VH: EVQLQQSGAELAKPGASVKMSCKASGYTFTNYWMHWVKQRPGQGLEWIGYVNPRTGYTEYNQKFKDKATLTADKSSRTAYMQLSSLTSEDSAVYSCARILNGTGFAYWGQGTLVTVSA VL: DIVLTQSPSSLTVSVGEKFTMSCKSSQSLLYSSNQKNYLAWYQQKPGQSPKLLIYWASTRESGVPDRFTGSGSGTDFTLAISSVKPEDLAIYYCQQYYSFPLTFGAGTKLEIKR | 1.67 |  |  |  |  |  |  |  |  |  | 
7B1F3-Myc (antibody, V domains shown) VH: EVQLQQSGAELAKPGASVKMSCKASGYTFTNYWMHWVKQRPGQGLEWIGYVNPRTGYTEYNQKFKDKATLTADKSSRTAYMQLSSLTSEDSAVYSCARILNGTGFAYWGQGTLVTVSA VL: DIVLTQSPSSLTVSVGEKFTMSCKSSQSLLYSSNQKNYLAWYQQKPGQSPKLLIYWASTRESGVPDRFTGSGSGTDFTLAISSVKPEDLAIYYCQQYYSFPLTFGAGTKLEIK |  | 0.64 | 0.14 | 0.21 | 0 | 0.91 | 0.42 | 0.37 | 0.45 |  | 
